Numbered stars: 1 amine (or outer) side, 2 acyl side, 3 side chain; on linkers, the order of the positions; unused ones are H or OH. Square brackets hold non-standard residues; d marks the D form. Ends that are not written are not given here. * marks the point of attachment. εLys = N[C@@H](CCCCN[*:1])C(=O)[*:2]; Adipoyl = O=C(CCCCC(=O)[*:2])[*:1]; boroPro = OB(O)[C@@H]1CCCN1*
What was measured:
Test in all cases: cell-based or functional assay
[1] = target: T1, T cell receptor of the PLP 139-151 specific T cell clone 4E3.B11.D9.H10.H6
[2] = target: T2, T cell receptor of the PLP 139-151 specific T cell clone 5B8.G8.E6.H12
[3] = target: T1, T cell receptor of the PLP 139-151 …; remark: listed apart in the source
[4] = target: T cell receptor of the PLP 139-151 specific T cell clone 2E5.G10.G5.E5
[5] = target: T cell receptor of the PLP 139-151 specific T cell clone SPL.C1.H2.F2
[6] = target: T2, T cell receptor of the PLP 139-151 …; remark: listed apart in the source
[7] = target: T cell receptor of the PLP 139-151 specific T cell clone 7A5.F10.G11
CD26 on H9 T cells = CD26 on H9 T cells (UniProt P27487 1-766, limits assumed)
Chain of CD26 on H9 T cells (P27487 whole entry): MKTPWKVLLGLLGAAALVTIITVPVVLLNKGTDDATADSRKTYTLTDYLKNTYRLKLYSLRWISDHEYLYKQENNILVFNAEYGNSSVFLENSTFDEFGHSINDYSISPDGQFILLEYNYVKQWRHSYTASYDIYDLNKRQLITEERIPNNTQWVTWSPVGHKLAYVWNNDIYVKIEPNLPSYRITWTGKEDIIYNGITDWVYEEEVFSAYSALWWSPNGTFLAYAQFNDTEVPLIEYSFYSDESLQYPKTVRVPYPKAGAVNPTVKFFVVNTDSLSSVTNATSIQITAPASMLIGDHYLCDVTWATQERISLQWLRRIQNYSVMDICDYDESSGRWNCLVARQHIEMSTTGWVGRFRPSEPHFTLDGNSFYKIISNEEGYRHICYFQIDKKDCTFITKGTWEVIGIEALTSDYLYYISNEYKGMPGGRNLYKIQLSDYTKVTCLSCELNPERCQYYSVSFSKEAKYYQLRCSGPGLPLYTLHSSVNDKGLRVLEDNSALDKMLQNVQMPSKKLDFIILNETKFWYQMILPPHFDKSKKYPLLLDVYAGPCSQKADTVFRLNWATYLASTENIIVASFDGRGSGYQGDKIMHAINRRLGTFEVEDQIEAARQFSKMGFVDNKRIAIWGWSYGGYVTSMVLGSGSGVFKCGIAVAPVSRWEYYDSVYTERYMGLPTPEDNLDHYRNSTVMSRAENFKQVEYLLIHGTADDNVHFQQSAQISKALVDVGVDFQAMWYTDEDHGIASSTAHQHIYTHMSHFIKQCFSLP

In the case of HSLGKWLGHPDKFAAAAAA-{εLys-boroPro}, the “enhancement of the proliferative response against PLP 139-151” value [1] is reported as about 2000 fold, the “enhancement of the proliferative response against PLP 139-151” value [2] is reported as about 200 fold and the “proliferation (thymidine uptake), antigen dose 0.1 µM” value (“proliferation … antigen dose 0.1 µM” below) [3] is reported as 3690 3H counts. The “proliferation (thymidine uptake), antigen dose 1 µM” value (“proliferation … antigen dose 1 µM” for short) [3] was 8580 3H counts, the “proliferation (thymidine uptake), antigen dose 10 µM” value (“proliferation … antigen dose 10 µM” for short) [3] was 15800 3H counts and the “proliferation (thymidine uptake), antigen dose 100 µM” value (from here on “proliferation … antigen dose 100 µM”) [3] was 17600 3H counts. The “proliferation … antigen dose 0.1 µM” value [4] was 175 3H counts, the “proliferation … antigen dose 1 µM” value [4] was 7740 3H counts and the “proliferation … antigen dose 10 µM” value [4] was 26400 3H counts. For the same binder, the “proliferation … antigen dose 100 µM” value [4] was 36700 3H counts, the “proliferation … antigen dose 0.1 µM” value [5] was 681 3H counts and the “proliferation … antigen dose 1 µM” value [5] was 2530 3H counts. The “proliferation … antigen dose 10 µM” value [5] was 17500 3H counts, the “proliferation … antigen dose 100 µM” value [5] was 31600 3H counts and the “proliferation … antigen dose 1 µM” value [6] was 22000 3H counts. The “proliferation … antigen dose 10 µM” value [6] was 53600 3H counts, the “proliferation … antigen dose 100 µM” value [6] was 34700 3H counts and the “proliferation … antigen dose 0.1 µM” value [7] was 187 3H counts. The “proliferation … antigen dose 1 µM” value [7] was 8200 3H counts, the “proliferation … antigen dose 10 µM” value [7] was 35500 3H counts and the “proliferation … antigen dose 100 µM” value [7] was 44000 3H counts.

With HSLGKWLGHPDKF [Myelin proteolipid protein peptide PLP 139-151 (HSLGKWLGHPDKF)] the “proliferation … antigen dose 0.1 µM” value [3] was 318 3H counts, the “proliferation … antigen dose 1 µM” value [3] was 125 3H counts and the “proliferation … antigen dose 10 µM” value [3] was 534 3H counts. The “proliferation … antigen dose 100 µM” value [3] was 1930 3H counts, the “proliferation … antigen dose 0.1 µM” value [4] was 101 3H counts and the “proliferation … antigen dose 1 µM” value [4] was 288 3H counts. For the same binder, the “proliferation … antigen dose 10 µM” value [4] was 70 3H counts, the “proliferation … antigen dose 100 µM” value [4] was 1510 3H counts and the “proliferation … antigen dose 0.1 µM” value [5] was 423 3H counts. The “proliferation … antigen dose 1 µM” value [5] was 107 3H counts, the “proliferation … antigen dose 10 µM” value [5] was 400 3H counts and the “proliferation … antigen dose 100 µM” value [5] was 809 3H counts. For the same binder, the “proliferation … antigen dose 0.1 µM” value [6] was 106 3H counts, the “proliferation … antigen dose 1 µM” value [6] was 349 3H counts and the “proliferation … antigen dose 10 µM” value [6] was 9180 3H counts. The “proliferation … antigen dose 100 µM” value [6] was 41100 3H counts, the “proliferation … antigen dose 0.1 µM” value [7] was 117 3H counts and the “proliferation … antigen dose 1 µM” value [7] was 222 3H counts. For the same binder, the “proliferation … antigen dose 10 µM” value [7] was 406 3H counts and the “proliferation … antigen dose 100 µM” value [7] was 2320 3H counts.

B1: KbP2-Adipate (di(L-Lysine-L-boroProline)adipate) (peptide)
peptide: Lys(Adipoyl)-[boroPro]
modifications: also: dimer: two Lys-boroPro joined by adipoyl linker between lysine ε-amino groups
In the case of B1, the “augmentation of IL-2 production by anti-CD3 (OKT3) stimulated H9 cells” value (CD26 on H9 T cells) is reported as at most 4 fold.
